Data as given in US11230581B2, “Peptides and combination of peptides for use in immunotherapy against ovarian cancer and other cancers” (Immatics Biotechnologies GmbH, priority 2015, dated 2022).

What follows are substances tested against HLA-A*02:01 (Homo sapiens, UniProt P04439, D140Y/D185E/D98H/E176V/E277Q/G131W/G231S/I119V/I121R/I166T/I218V/L300P/L318F/N151K/N90K/P208A/P217A/Q86G/Q94H/R138H/R169H/T345S) (assay: MHC binding assay (UV-ligand exchange, β2m ELISA, peptide exchange yield)). Conditions: binding of HLA-class I restricted peptides to HLA-A*02:01, UV-ligand exchange.
Outline: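 Peptide-MHC complexes formed by UV-ligand exchange, cleaving a UV-sensitive placeholder peptide in favour of the test peptide. Exchange yield measured by ELISA: monomers diluted 100-fold onto streptavidin-coated plates, 1 h 37 °C, detected with 2 ug/ml HRP anti-β2m and TMB, absorbance at 450 nm.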

| Substance | Peptide exchange (MHC class I binding score, peptide exchange yield) |
| --- | --- |
| 237 (ALLEASGTLLL; listed as Homo sapiens) [compound 237] | “++++” (≥75% = ++++) |
| 214 (FLLDLDPLLL; listed as Homo sapiens) [compound 214] | “+++” (≥50 = +++) |
| 56 (KLYEGIPVLL; listed as Homo sapiens) [compound 56] | “++++” (≥75% = ++++) |
| 461 (VMFRTPLASV; listed as Homo sapiens) [compound 461] | “++” (≥20% = ++) |
| 381 (FIDEAYVEV; listed as Homo sapiens) [compound 381] | “++” (≥20% = ++) |
| 506 (KLLGKVETA; listed as Homo sapiens) [compound 506] | “+++” (≥50 = +++) |
| 10 (FLATFPLAAV; listed as Homo sapiens) [compound 10] | “++++” (≥75% = ++++) |
| 362 (TLYGLSVLL; listed as Homo sapiens) [compound 362] | “+++” (≥50 = +++) |
| 598 (FLFPHSVLV; listed as Homo sapiens) [compound 598] | “+++” (≥50 = +++) |
| 537 (TLAPGEVLRSV; listed as Homo sapiens) [compound 537] | “+++” (≥50 = +++) |
| 287 (FLNEFFLNV; listed as Homo sapiens) [compound 287] | “+++” (≥50 = +++) |
| 492 (SLFDGFADGLGV; listed as Homo sapiens) [compound 492] | “+++” (≥50 = +++) |
| 82 (FLSSVTYNL; listed as Homo sapiens) [compound 82] | “+++” (≥50 = +++) |
| 494 (ALQPEPIKV; listed as Homo sapiens) [compound 494] | “++” (≥20% = ++) |
| 208 (KISPVTFSV; listed as Homo sapiens) [compound 208] | “+++” (≥50 = +++) |
| 451 (LLLLDTVTMQV; listed as Homo sapiens) [compound 451] | “++” (≥20% = ++) |
| 458 (SLIDKLYNI; listed as Homo sapiens) [compound 458] | “++” (≥20% = ++) |
| 132 (LLVEQPPLAGV; listed as Homo sapiens) [compound 132] | “+++” (≥50 = +++) |
| 597 (KLLEGQVIQL; listed as Homo sapiens) [compound 597] | “+++” (≥50 = +++) |
| 548 (ALWENPESGEL; listed as Homo sapiens) [compound 548] | “++” (≥20% = ++) |
| 331 (KVDTVWVNV; listed as Homo sapiens) [compound 331] | “+++” (≥50 = +++) |
| 106 (LLYDAVHIVSV; listed as Homo sapiens) [compound 106] | “+++” (≥50 = +++) |
| 469 (YLASDEITTV; listed as Homo sapiens) [compound 469] | “+++” (≥50 = +++) |
| 622 (RLLGEEVVRVLQA; listed as Homo sapiens) [compound 622] | “+++” (≥50 = +++) |
| 472 (KLLEVSDDPQV; listed as Homo sapiens) [compound 472] | “+++” (≥50 = +++) |

| Substance | Peptide exchange (MHC class I binding score, peptide exchange yield) |
| --- | --- |
| 146 (SLATAGDGLIEL; listed as Homo sapiens) [compound 146] | “++” (≥20% = ++) |
| 460 (AMLEKNYKL; listed as Homo sapiens) [compound 460] | “++++” (≥75% = ++++) |
| 186 (TLFFQQNAL; listed as Homo sapiens) [compound 186] | “++” (≥20% = ++) |
| 282 (LLADVVPTT; listed as Homo sapiens) [compound 282] | “+++” (≥50 = +++) |
| 277 (LLPPLESLATV; listed as Homo sapiens) [compound 277] | “++” (≥20% = ++) |
| 271 (LVYPLELYPA; listed as Homo sapiens) [compound 271] | “+++” (≥50 = +++) |
| 574 (YLLQEPPRTV; listed as Homo sapiens) [compound 574] | “++” (≥20% = ++) |
| 438 (KLLPLAGLYL; listed as Homo sapiens) [compound 438] | “++++” (≥75% = ++++) |
| 596 (ALLDQTKTLAESAL; listed as Homo sapiens) [compound 596] | “+++” (≥50 = +++) |
| 441 (ALLENPKMEL; listed as Homo sapiens) [compound 441] | “+++” (≥50 = +++) |
| 552 (GLLDLPFRVGV; listed as Homo sapiens) [compound 552] | “++++” (≥75% = ++++) |
| 110 (FLSQVDFEL; listed as Homo sapiens) [compound 110] | “+++” (≥50 = +++) |
| 52 (FLLAHGLGFLL; listed as Homo sapiens) [compound 52] | “++++” (≥75% = ++++) |
| 32 (KLDDLTQDLTV; listed as Homo sapiens) [compound 32] | “++” (≥20% = ++) |
| 568 (TLYDIAHTPGV; listed as Homo sapiens) [compound 568] | “++++” (≥75% = ++++) |
| 239 (AAFAGKLLSV; listed as Homo sapiens) [compound 239] | “+++” (≥50 = +++) |
| 200 (LLFGSVQEV; listed as Homo sapiens) [compound 200] | “+++” (≥50 = +++) |
| 389 (LLADVTHLL; listed as Homo sapiens) [compound 389] | “++” (≥20% = ++) |
| 115 (AIAGAGILYGV; listed as Homo sapiens) [compound 115] | “++” (≥20% = ++) |
| 620 (KLLNKIYEA; listed as Homo sapiens) [compound 620] | “++++” (≥75% = ++++) |
| 142 (FLFATPVFI; listed as Homo sapiens) [compound 142] | “+++” (≥50 = +++) |
| 516 (AVGPASILKEV; listed as Homo sapiens) [compound 516] | “++” (≥20% = ++) |
| 432 (TLIEESAKV; listed as Homo sapiens) [compound 432] | “++” (≥20% = ++) |
| 155 (RVANLHFPSV; listed as Homo sapiens) [compound 155] | “+++” (≥50 = +++) |
| 474 (YLDPALELGPRNV; listed as Homo sapiens) [compound 474] | “+++” (≥50 = +++) |
